Experiment: yeast display, Sf9 membrane polyspecificity reagent, FACS + sequencing; frameworks hold sequencing errors
How it was run: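 Using colony PCR, genes from sorted yeast display clones were amplified, then sequenced on MiSeq at 2 × 250 and filtered by CDR length. The clones had been stained with 10% biotinylated, detergent-solubilized Sf9 membrane reagent for 1 hour at 4 °C and sorted by FACS into low and high (top ~1%) gates on anti-HA and streptavidin fluorescence. Polyreactivity labels come from the gate of origin.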

Sequence: QVQVVESGGGLVQAGGSLRISCAASGRILGNNVMGWYRQAPWKERDLVAAITSSGGRTYYADSVKGRFTISRDNAKNTVYLQMNSLKPVDTAVYYCAAERRYYGKFNYWGHGTQVTVSS
- polyreactivity (PSR sort gate): high polyreactivity

Sequence: QVQVVESGGGLVQAGGSLRLICAASGSTFYSYAMGWYRQAPGKERELVAPISSSGVRTYYADSVKGRFTISRDNAKNTVFLQMISLKPEDTAVYYCNTYLKRYVGRGGPSYYWGQGTQVTVSS
- polyreactivity (PSR sort gate): high polyreactivity

Sequence: QVQVVESGGGLVQAGGSLRLSCAASGFTFAVYAMGWYRQAPGKERELVAAISRSGTRTYYADSVKGRFTISRDNAKNTVYVQMNSLKPEDTAVYYCAADKYRHGYDYWGQGTQVTVSS
- polyreactivity (PSR sort gate): low polyreactivity

Sequence: QVQVVESGGGLVQAGGSLRLSCAASGFTSTRYAMGWYRQAPGKERELVAAISYGGGDTYYADSVKGRFTISRDNAKNSVYLQMNSMKPEDTAVYYCNARGRYRKSERRAFDYWGQGTQVTVSS
- polyreactivity (PSR sort gate): high polyreactivity

Sequence: QVQVVESGGGLVQAGGSLRLSCAASGITFFLNAMGWYRQAPGKERELVAAISSGAGTTYADSVKGRFTISRDNAKNTFFLQMKSLKPEDTAVYYCAAAGDYVVPISSTAGFGGDYWGQGTQVTVSS
- polyreactivity (PSR sort gate): low polyreactivity

Sequence: QVQVVESGGGLVQAGGSLRLSCAASGLTFQVYAKGWYRQAPGKERELVARISSSGSSTYADSVKGRFTISRDNAKNTVYLQMNSLKPEDTAVYYCNAGKRQRGEYWGQGTQVTVSS
- polyreactivity (PSR sort gate): high polyreactivity

Sequence: QVQVVESGGGLVQAGGSLRLSCAASGRIFGYNAMGWYRQAPGKERELVAAISSGGSTYYADSVKGRFTISRDNAKNTVYLLMHSLKPEDTAVYYCAAEDYPPYPTVYDYWGQGTQVTVSS
- polyreactivity (PSR sort gate): low polyreactivity

Sequence: QVQVVESGGGLVQAGGSLRLSCAASGSIFFVYAMGWYRQAPGKERELVAAISSGDITYYADSVKGRFTISRDNAKNTVYLQLISLKPEDTAVYYCNAERLGNTLSPGGDDYWGQGTQVTVSS
- polyreactivity (PSR sort gate): low polyreactivity

Sequence: QVQVVESGGGLVQAGGSLRLSCAASGSIFSGYAMGWYREAPGKERELVAAITSSGGSTYYADSVKGRFTISRDNAKKTVYLQMHSLKPEDTAVYYCAAYRYRYYSYDSWGQGTQVTVSS
- polyreactivity (PSR sort gate): high polyreactivity

Sequence: QVQVVESGGGLVQAGGSLRLSCAASGSIFSWNAMGWYRQAPGKERELVAAISKRGTSTYYADSVKGRFTISRDNAKNTVYLQMNSLKPEDTAVYYCAVSRIVDFGQKMYYWGQGTQVTVSS
- polyreactivity (PSR sort gate): high polyreactivity

Sequence: QVQVVESGGGLVQAGGSLRLSCAASGSISDSYAMGWYRQAPGKERELVAAITSGDSTYYADSVKGRFTISRDNAKNTVYLQMNSLKPEDTAVYYCAKRVSRVRGYGFTDWSEYDYWGQVTQVTVSS
- polyreactivity (PSR sort gate): low polyreactivity

Sequence: QVQVVESGGGLVQAGGSLRLSCAASGSTFFFYAMGWYIHAPGKERELVAAISSTGRKYYADSVKGRFTISRDNAKNTVYLQMNSLTPEDTAVYYCAARIYSGYSYWGQCTQVTVSS
- polyreactivity (PSR sort gate): high polyreactivity

Sequence: QVQVVESGGGLVQAGGSLRLSCAASGSTFGVYAMGWYRQAPGKEWELVAAISASTGSTYYADSVKGRFTISRDNAKQTVYLQMNSRKPEHTAVYYCAAAGYGKVRGDYWGQGTQVTVTS
- polyreactivity (PSR sort gate): low polyreactivity

Sequence: QVQVVESGGGLVQAGGSLRLSCAASGYIINQYTMGWYRQAPGKERELVADNSSGGSTTYADSVKGRFTISRDNAKNTVYLQMNSLKTEHTAVYYCNAEYDSGSPTAYDWEYDYWGHGTQVTVSS
- polyreactivity (PSR sort gate): high polyreactivity

Sequence: QVQVVESGGGLVQAGGSLRLSSAASGSTFNYNAMGWYRQAPGKERELVAAITNGGSTSYADSVKGRFTISRDNAKNTVYLQMNSLKPEDTAVYYCNADEDLRGYDYWGQGTQVTVSS
- polyreactivity (PSR sort gate): low polyreactivity

Sequence: QVQVVESGGGLVQEGGSLRLSCAASGSTFGINAMGWYRPAPGKEREWVAAITSTGRTYYADSVKGRFTNSRDNAKNTVYLQMNSLKPEDTAVYYCAAVWRYKGLLLPSYYYWGQGTQVTVSS
- polyreactivity (PSR sort gate): high polyreactivity

Sequence: QVQVVESGGGLVQTGGSLRLSCAASGSTFRRYDMGWYRPAPGKEWELVAAISVSGGNTYYADSVKGRFTISRDNAKNTVYLQMNSLKPEDTAVYYCATSRWVDNKYTLRSRYYYWGQGTQVTVSS
- polyreactivity (PSR sort gate): high polyreactivity

Sequence: QVQVVESRGGLVQAGGRLRLSCAASGSTFGVNAMGWYRTAPGKERELVAAISYTGGSTYYADSVKGRFTISRDNAKNTVYLQMNSLKAEHTAVSYCAVEVGYTDSPYSYDYWGQGTQVTVSS
- polyreactivity (PSR sort gate): low polyreactivity

Sequence: QVQVVETGGGLVQAGGSLRLSCAPSGITFVTYAMGWYRQAPGKERELVAAISRSGGRTYYADSVNVRFTISRDNAKNTVYLQMNSLKPEDTAVYYCAAERKNKYDYWGQGTQVTVSS
- polyreactivity (PSR sort gate): high polyreactivity

Sequence: QVQVVKSGGGLVQAGGSLSLSCAASGRTFGVYAMGWYRQAPGNESELVAGIRWRGGSTYYADSVKGRFTISRDNSKNTVYLQMKSLKPEETAVYYCAADVDLVKDDYWGQGTQVTVSS
- polyreactivity (PSR sort gate): low polyreactivity

Sequence: QVRLVESGGGLVQAGGSLRLSCAASGRTLFVYDMGWYRQAPGKERELVAAISTGDDTNYADSVKGRFTISRDNAKNTVYLQMNSLKPEDTAVYYCNALYYTYPYWGYPSDYNLDYWGQGTQVTVSS
- polyreactivity (PSR sort gate): low polyreactivity

Sequence: QVRLVESGGGLVQAGGSLRLSCAASGSTFKTYAMGWYRQAPGIERELVAAISAGGGSTYYADSVKGRFTISRDNAKNTVYLQMNSLKPEDTAVYYCAAAYIYAGWDYEYGGQGTQVTVSS
- polyreactivity (PSR sort gate): low polyreactivity

Sequence: RSGGGLVQAGGSLRLSCAPSGRIFKINAMGWYRQPPGKERALVARITRGGSTYYADSVKGRFTISRDNATNTVYLQMTSVKPEDTAVYYCAADDTGPYSNSYDYWGQGTQVTFSS
- polyreactivity (PSR sort gate): low polyreactivity

Sequence: RVQLQESGGGLVQAGGSLRLSCAASGTIFIRGDMGWYRQAPGKEREFVATIDTGSNTYYADSEKGRFTISRDNATNAVYLHMNCLKPGDTAFYYCVVDYQLSGRLRYWGQGTQVTLSS
- polyreactivity (PSR sort gate): low polyreactivity

Sequence: RVQLVESGGGLVQAGGSLRLSCAASGRIFDNYVMGCYRQAPGKDRELLAAISSGGGTYYADSVKGRFTISRDNAMNTVYLQMNSLKPEDTAVYFCAKRRVYDRSFGRYDYWGQGTQVTGSS
- polyreactivity (PSR sort gate): low polyreactivity

Sequence: RVQLVESGGGLVQAGGSLRLSCAASGSTFLVYAMGWYRQAPGKERELVAVIRWRDGSTYYADSVKGRFTISRDNAKNTVYLQLNSLKPEDTAVYYCAAVYWGEEYEYWGQGTQVTVSS
- polyreactivity (PSR sort gate): low polyreactivity
